This data set relates to ATP. As to the kind of experiment: switch fluorescence ratio, 500 uM ATP over buffer (Cy3 cluster intensity, sum of 5 cycles each) (fold (ratio)); higher = stronger signal-on switching upon ATP binding; sequences stand for … in TCGTCGGCAGCGTCAGATGTGTATAAGAGACAGTTTTTTTTTTTTTTTTTTTTTTTTT…TC. The conditions noted are these: aptamer strand: ATP DNA aptamer (quencher-CACCTGGGGGAGTATTGCGGAGGAAGG + anchor), 100 nM annealed; ATP concentration: 500 uM. The gist of the method:
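Imaging in selection buffer was followed by imaging after 15 min with 500 uM ATP at 22 °C, for Cy3-labelled switching-strand clusters annealed to 100 nM quencher-labelled ATP aptamer on a modified Illumina MiSeq flow-cell. Five of these buffer/ATP cycles ran, separated by NaOH stripping and re-annealing. The fluorescence ratio per cluster is summed target-cycle over summed buffer-cycle Cy3 intensity, averaged per switch-domain sequence; clusters outside 100-1000 RFU were removed.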

± gives the standard deviation of the averaged measurements.
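Note: ATP exposure 15 min at 22 °C before imaging.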

In the case of TTACCTCATT, the switch fluorescence ratio stood at 1.02 ± 0.015.

Consider TTACCTGGGG, for which the switch fluorescence ratio was found to be 1.03 ± 0.038.

Regarding TTACCTTTTT, the switch fluorescence ratio came to 1.02 ± 0.013. As for TTACGAAGGG, the figure is 1.012 ± 0.0045; as for TTACGACCGG, 1.01 ± 0.032. Consider TTACGGAGGC, for which the switch fluorescence ratio was found to be 1.0641 ± 5.8e-05. On to TTACGGAT, for which the switch fluorescence ratio came out at 1.06 ± 0.019. The value for TTACGGATGT was 1.02 ± 0.012; that for TTACGGCAGG was 1.13 ± 0.092. For TTACGGCCAA, the switch fluorescence ratio stood at 1.26 ± 0.31. With TTACGGCCGA, the switch fluorescence ratio came to 1.02 ± 0.026. As for TTACGGGGAG, the switch fluorescence ratio came to 1 ± 0.034. Turning to TTACGGGTAG, the switch fluorescence ratio was found to be 1.02 ± 0.0088. As for TTACGGTGCC, the figure is 0.987 ± 0.03. As to TTACGGTTGC, the switch fluorescence ratio was 0.9665 ± 0.0024. Turning to TTACGTTTC, the switch fluorescence ratio was 1 ± 0.034. As for TTACGTTTTG, the switch fluorescence ratio turned out to be 1.13 ± 0.29. With TTACTATTCT, the switch fluorescence ratio came to 1.001 ± 0.0063. For TTACTATTTT, the switch fluorescence ratio stood at 1.03 ± 0.023. Regarding TTACTCCTTT, the switch fluorescence ratio came out at 1 ± 0.017. TTACTCGACG: the switch fluorescence ratio was found to be 1.06 ± 0.022. TTACTCGTCA: the switch fluorescence ratio came to 0.989 ± 0.011. As for TTACTCGTCT, the figure is 1.08 ± 0.056; as for TTACTCTATA, 1.06 ± 0.016. For TTACTGGCT, the switch fluorescence ratio was determined as 1 ± 0.059. Turning to TTACTGGGGT, the switch fluorescence ratio was determined as 1.02 ± 0.021. On to TTACTTCTTT, for which the switch fluorescence ratio was found to be 0.976 ± 0.027. For the sequence TTACTTGAGG, the switch fluorescence ratio turned out to be 1.11 ± 0.13.

With TTACTTGGCC, the switch fluorescence ratio stood at 0.9818 ± 0.0021. Consider TTAGAAACGC, for which the switch fluorescence ratio came out at 1.02 ± 0.04. The value for TTAGAAAGGG was 0.977 ± 0.029; that for TTAGAATACG was 1 ± 0.045; that for TTAGACATTA was 1.02 ± 0.018. Regarding TTAGACGCGG, the switch fluorescence ratio was 0.98 ± 0.036. Regarding TTAGACGGGG, the switch fluorescence ratio is 1 ± 0.034.

On to TTAGAGACGT, for which the switch fluorescence ratio amounted to 1.03 ± 0.027.

TTAGAGACTG: the switch fluorescence ratio turned out to be 1.08 ± 0.11. As for TTAGAGAGGC, the switch fluorescence ratio stood at 0.961 ± 0.054.

For the sequence TTAGAGAGGT, the switch fluorescence ratio was found to be 0.988 ± 0.03.

In the case of TTAGAGCTTT, the switch fluorescence ratio was determined as 0.975 ± 0.021. For the sequence TTAGAGGAAC, the switch fluorescence ratio was 0.965 ± 0.028. In the case of TTAGAGGCAT, the switch fluorescence ratio is 1.05 ± 0.066.

As to TTAGAGGCGT, the switch fluorescence ratio is 1.006 ± 0.0053.

As for TTAGATACCA, the switch fluorescence ratio was 1.03 ± 0.039. The value for TTAGATGCGG was 1.013 ± 0.01; that for TTAGCAACGA was 1.09 ± 0.039. As to TTAGCATGTT, the switch fluorescence ratio came out at 1 ± 0.022. Take TTAGCATTAG: the switch fluorescence ratio stood at 1.23 ± 0.04. Consider TTAGCCGGGT, for which the switch fluorescence ratio came to 0.9802 ± 0.0028. In the case of TTAGCCGTTG, the switch fluorescence ratio turned out to be 1.03 ± 0.015.

Regarding TTAGCGAGGT, the switch fluorescence ratio is 1.02 ± 0.032. Regarding TTAGCGGGGG, the switch fluorescence ratio came to 1.03 ± 0.06. As to TTAGCTCTA, the switch fluorescence ratio is 1.012 ± 0.0054. For TTAGGAAATT, the switch fluorescence ratio was found to be 1.04 ± 0.032.

As for TTAGGAAGGT, the switch fluorescence ratio came out at 1 ± 0.021. Regarding TTAGGACGGC, the switch fluorescence ratio is 0.876 ± 0.02. Turning to TTAGGACTTG, the switch fluorescence ratio worked out at 0.985 ± 0.015. The value for TTAGGAGAAT was 0.999 ± 0.015; that for TTAGGCCCTG was 0.992 ± 0.041; that for TTAGGCGCAT was 1.03 ± 0.025. On to TTAGGCTTT, for which the switch fluorescence ratio was determined as 0.9374 ± 0.0049. Regarding TTAGGGAA, the switch fluorescence ratio stood at 1.01 ± 0.023. With TTAGGGAAGT, the switch fluorescence ratio was determined as 0.991 ± 0.031.

Regarding TTAGGGAGTT, the switch fluorescence ratio stood at 0.9784 ± 0.0062. For the sequence TTAGGGATAT, the switch fluorescence ratio is 1.22 ± 0.42. As to TTAGGGCCAA, the switch fluorescence ratio is 1 ± 0.0078. For TTAGGGCCGC, the switch fluorescence ratio is 0.966 ± 0.014. As for TTAGGGCTAG, the switch fluorescence ratio was 0.9932 ± 0.0081. Regarding TTAGGGCTGC, the switch fluorescence ratio stood at 0.98664 ± 0.00045.

Take TTAGGGGAAG: the switch fluorescence ratio was 1.01 ± 0.022. With TTAGGGGTGG, the switch fluorescence ratio came to 0.996 ± 0.032. In the case of TTAGGGTCAG, the switch fluorescence ratio came out at 0.997 ± 0.035. TTAGGGTCGC: the switch fluorescence ratio is 0.993 ± 0.035. On to TTAGGGTG, for which the switch fluorescence ratio stood at 0.992 ± 0.03.

As for TTAGGGTTTC, the switch fluorescence ratio turned out to be 0.978 ± 0.013.

For TTAGGTAGCA, the switch fluorescence ratio was 1.007 ± 0.0024. TTAGGTATCT: the switch fluorescence ratio was found to be 1.01 ± 0.0095.

Turning to TTAGGTTTGT, the switch fluorescence ratio was found to be 1 ± 0.031. For TTAGGTTTTG, the switch fluorescence ratio came to 1.02 ± 0.061. Take TTAGTAAGTT: the switch fluorescence ratio amounted to 1.11 ± 0.12. Consider TTAGTACCCA, for which the switch fluorescence ratio turned out to be 1.03 ± 0.0032.

Regarding TTAGTACCCT, the switch fluorescence ratio was 1.06 ± 0.043. Take TTAGTAGGAG: the switch fluorescence ratio came to 0.992 ± 0.034. Turning to TTAGTAGGTG, the switch fluorescence ratio amounted to 0.98 ± 0.024.

As for TTAGTAGTGG, the switch fluorescence ratio stood at 0.974 ± 0.01. As to TTAGTATGTT, the switch fluorescence ratio is 1 ± 0.035. The value for TTAGTCGACC was 0.9919 ± 0.0016. TTAGTGATTA: the switch fluorescence ratio is 0.996 ± 0.014.

Consider TTAGTGCTCC, for which the switch fluorescence ratio came to 1.039 ± 0.0018. As for TTAGTGGCGA, the switch fluorescence ratio was determined as 1.19 ± 0.31. Take TTAGTGTTTT: the switch fluorescence ratio came to 0.98 ± 0.05. In the case of TTAGTTACGG, the switch fluorescence ratio turned out to be 0.999 ± 0.019. The value for TTAGTTATAG was 1 ± 0.025; that for TTAGTTATGT was 0.992 ± 0.0093; that for TTAGTTGAGT was 1.02 ± 0.028. As for TTAGTTGTAA, the figure is 1.012 ± 0.0049. As to TTAGTTGTTT, the switch fluorescence ratio turned out to be 0.964 ± 0.023.

Consider TTAGTTTGTT, for which the switch fluorescence ratio was 0.981 ± 0.014. As to TTAGTTTTGT, the switch fluorescence ratio stood at 0.999 ± 0.027.

On to TTATAAAAAA, for which the switch fluorescence ratio is 1.07 ± 0.079. As for TTATAAAAGG, the switch fluorescence ratio was determined as 1.031 ± 0.0021. TTATAAAGCG: the switch fluorescence ratio was found to be 1.054 ± 0.0028.

Consider TTATAAAGGA, for which the switch fluorescence ratio came to 1.05 ± 0.046. Consider TTATAAATTG, for which the switch fluorescence ratio was 0.991 ± 0.03. As to TTATAAG, the switch fluorescence ratio stood at 1.003 ± 0.0067. As for TTATAATCGT, the figure is 0.988 ± 0.014; as for TTATAATCTG, 0.986 ± 0.064. With TTATAATGGT, the switch fluorescence ratio was 1.02 ± 0.062. On to TTATACAAGT, for which the switch fluorescence ratio worked out at 0.9574 ± 0.0065. On to TTATACATCT, for which the switch fluorescence ratio turned out to be 1.038 ± 0.0068. Turning to TTATACATTG, the switch fluorescence ratio was determined as 1.02 ± 0.041. For the sequence TTATACGATG, the switch fluorescence ratio worked out at 1.01 ± 0.025.

Regarding TTATACGCGG, the switch fluorescence ratio is 0.991 ± 0.026. For the sequence TTATACGTAG, the switch fluorescence ratio was determined as 1.03 ± 0.019. For TTATACGTCG, the switch fluorescence ratio is 1.01 ± 0.023.

For TTATAGAGG, the switch fluorescence ratio was 1.02 ± 0.0041. As for TTATAGGGG, the figure is 1 ± 0.039; as for TTATAGGTCT, 1 ± 0.072; as for TTATATCGGG, 0.995 ± 0.016. In the case of TTATATTGGG, the switch fluorescence ratio is 1 ± 0.033.

(Values after the supplement of paper PMC10126150.)
